Results as given in the supplement of paper PMC6379048.

What was measured:
Assay in all cases: EC50 of free RNA motif oligo competing protein binding to immobilised probe
GRSF1 = molecular target: T1, GRSF1 (UniProt Q12849)
T1 sequence: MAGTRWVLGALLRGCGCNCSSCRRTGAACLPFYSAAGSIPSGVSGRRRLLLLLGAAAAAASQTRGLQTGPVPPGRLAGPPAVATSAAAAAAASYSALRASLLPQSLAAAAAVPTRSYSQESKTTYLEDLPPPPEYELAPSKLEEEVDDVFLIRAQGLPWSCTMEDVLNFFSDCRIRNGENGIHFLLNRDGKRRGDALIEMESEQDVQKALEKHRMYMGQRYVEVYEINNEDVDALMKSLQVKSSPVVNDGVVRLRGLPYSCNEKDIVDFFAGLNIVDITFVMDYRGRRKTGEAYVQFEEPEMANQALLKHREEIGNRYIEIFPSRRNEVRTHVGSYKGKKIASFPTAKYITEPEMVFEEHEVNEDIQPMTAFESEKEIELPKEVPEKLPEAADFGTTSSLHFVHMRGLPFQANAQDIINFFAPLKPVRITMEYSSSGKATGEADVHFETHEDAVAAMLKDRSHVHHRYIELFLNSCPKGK
Procedure, shortened: (§1)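 HEK293-FT lysate (2.5 mg protein/well) was treated with free RNA oligos (0 nM to 30 μM) for 1 h at 4°C, then with the same oligos on NHS-Sepharose beads for 30 min at 4°C. Bound proteins were quantified by label-free LC-MS/MS relative to the control. EC50 came from a four-parameter log-logistic fit, and Kd is EC50 times a protein-dependent depletion factor.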

MRPL38 = MRPL38 (UniProt Q96DV4)
Procedure, shortened: as §1

ANGEL2 = molecular target: T2, ANGEL2 (UniProt Q5VTE6)
T2 sequence: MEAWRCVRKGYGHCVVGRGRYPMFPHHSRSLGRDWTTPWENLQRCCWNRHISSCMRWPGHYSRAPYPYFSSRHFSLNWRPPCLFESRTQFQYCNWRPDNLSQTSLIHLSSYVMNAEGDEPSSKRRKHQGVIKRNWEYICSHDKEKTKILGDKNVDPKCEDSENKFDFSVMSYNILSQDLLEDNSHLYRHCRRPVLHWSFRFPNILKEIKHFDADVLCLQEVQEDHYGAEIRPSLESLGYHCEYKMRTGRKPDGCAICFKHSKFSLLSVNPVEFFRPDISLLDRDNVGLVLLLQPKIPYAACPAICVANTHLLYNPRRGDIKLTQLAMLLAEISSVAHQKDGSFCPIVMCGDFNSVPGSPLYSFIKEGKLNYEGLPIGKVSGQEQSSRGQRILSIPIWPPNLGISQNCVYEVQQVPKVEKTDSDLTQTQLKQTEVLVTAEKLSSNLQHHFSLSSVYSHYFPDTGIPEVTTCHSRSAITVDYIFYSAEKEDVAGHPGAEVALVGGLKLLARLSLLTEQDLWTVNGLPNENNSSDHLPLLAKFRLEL
Procedure, shortened: as §1

MRPL22 = MRPL22 (UniProt Q9NWU5)
Procedure, shortened: as §1

MRPL53 = MRPL53 (UniProt Q96EL3)
Procedure, shortened: as §1

UPF1 = molecular target: T3, UPF1 (UniProt Q92900)
T3 sequence: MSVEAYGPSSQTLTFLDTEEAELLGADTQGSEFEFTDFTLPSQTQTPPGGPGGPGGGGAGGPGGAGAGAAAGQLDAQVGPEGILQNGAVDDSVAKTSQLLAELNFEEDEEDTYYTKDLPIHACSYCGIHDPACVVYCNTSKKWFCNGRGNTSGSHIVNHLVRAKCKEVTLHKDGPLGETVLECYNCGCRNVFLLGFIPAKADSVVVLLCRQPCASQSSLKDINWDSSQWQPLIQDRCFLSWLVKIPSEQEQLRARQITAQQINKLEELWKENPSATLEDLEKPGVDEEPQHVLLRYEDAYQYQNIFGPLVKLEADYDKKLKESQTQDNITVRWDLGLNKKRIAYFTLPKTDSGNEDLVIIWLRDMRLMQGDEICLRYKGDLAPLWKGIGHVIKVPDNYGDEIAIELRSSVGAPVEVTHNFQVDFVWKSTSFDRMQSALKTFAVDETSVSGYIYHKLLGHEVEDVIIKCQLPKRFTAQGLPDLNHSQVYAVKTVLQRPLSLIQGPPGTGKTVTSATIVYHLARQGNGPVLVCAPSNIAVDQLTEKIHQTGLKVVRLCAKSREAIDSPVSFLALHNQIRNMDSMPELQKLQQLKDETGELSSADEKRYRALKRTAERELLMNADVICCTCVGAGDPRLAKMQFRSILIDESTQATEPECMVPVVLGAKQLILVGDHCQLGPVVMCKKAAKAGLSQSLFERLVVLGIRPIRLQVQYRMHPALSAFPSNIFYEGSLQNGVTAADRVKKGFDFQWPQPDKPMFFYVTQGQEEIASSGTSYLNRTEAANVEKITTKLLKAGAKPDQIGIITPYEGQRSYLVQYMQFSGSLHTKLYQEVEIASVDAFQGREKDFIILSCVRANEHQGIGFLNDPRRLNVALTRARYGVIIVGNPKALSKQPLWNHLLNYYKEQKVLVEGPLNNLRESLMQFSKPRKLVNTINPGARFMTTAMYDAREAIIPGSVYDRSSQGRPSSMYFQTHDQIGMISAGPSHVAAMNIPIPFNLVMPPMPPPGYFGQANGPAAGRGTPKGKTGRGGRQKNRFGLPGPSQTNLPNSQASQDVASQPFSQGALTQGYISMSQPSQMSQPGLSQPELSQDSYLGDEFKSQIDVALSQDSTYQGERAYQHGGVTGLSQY
Procedure, shortened: as §1

HMGB2 = molecular target: T4, HMGB2 (UniProt P26583)
T4 sequence: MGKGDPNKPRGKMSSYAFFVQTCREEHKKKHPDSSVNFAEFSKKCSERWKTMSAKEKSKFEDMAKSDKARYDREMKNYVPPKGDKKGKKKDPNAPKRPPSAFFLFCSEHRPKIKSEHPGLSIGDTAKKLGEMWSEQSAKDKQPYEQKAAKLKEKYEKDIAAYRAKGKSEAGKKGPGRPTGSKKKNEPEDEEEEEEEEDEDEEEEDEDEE
Procedure, shortened: as §1

## UAUUUAU
GRSF1
  EC50: 18 µM

## CUGUCCU
MRPL38
  EC50: 119 nM
ANGEL2
  EC50: 504 nM
MRPL22
  EC50: 98.4 nM
MRPL53
  EC50: 103 nM

## AAUAAA
UPF1
  EC50: 4.9 µM
HMGB2
  EC50: 2.5 nM
